We go through twelve substances from US20160257710A1, “SELECTIVE INHIBITORS OF PROTEINASE 3” (INSERM (INSTITUT NATIONAL DE LA SANTÉ ET LA RECHERCHE …, priority 2013, published 2016).

What all share (type): biochemical
The target of one data set is T1, Proteinase 3 (Homo sapiens, UniProt P24158).
T1 sequence (P24158 28-248): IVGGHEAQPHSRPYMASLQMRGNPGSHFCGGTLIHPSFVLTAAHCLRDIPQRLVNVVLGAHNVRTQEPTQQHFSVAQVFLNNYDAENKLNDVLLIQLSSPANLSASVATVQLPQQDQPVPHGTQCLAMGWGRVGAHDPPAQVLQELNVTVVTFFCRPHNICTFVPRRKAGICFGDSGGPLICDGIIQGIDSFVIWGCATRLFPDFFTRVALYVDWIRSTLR
The experiment in a line: Protease inhibition assay, second order rate constant kobs/[I] (method of Tian and Tsou). To be noted: for kobs/I range: PR3; for effect of P5 group on kobs/I: ammonium, Trp or Ile at P5. Here is the method: The compounds of the invention are advantageously selective inhibitors of PR3. […] As described under the Examples below (see PR3 inhibition assay), and as is generally known, efficacy of particular inhibitors against a target protease, for example, recombinant human PR3, is determined by combining the target with a substrate (for example Suc-AanV-SBzI), both in the absence of the inhibitor and in the present of different concentrations of such inhibitor to be tested. Typically, the efficacy of irreversible inhibitors are measured in terms of the second order rate constant of inhibition value (11) or kobs/l. Preferred inhibitors of the invention have typically a kobs/I of more than 10 M^−1s^−1, preferably more than 100 M^−1s^−1, and more preferably of more than […].
(§1) The inactivation of proteases by substrate analog inhibitors in the presence of the substrate by competition for the enzyme-binding site, was measured by the method of Tian and Tsou (17). In this system, product formation in the presence of an irreversible inhibitor approaches an asymptote, as described by
(§2) log([P∞]−[P])=log [P∞]−0.43A[Y]t
(§3) where [P∞] is the concentration of product formed at time approaching infinity, [P] is the concentration of product at time t, [Y] is the inhibitor concentration, and A is the apparent inhibition rate constant in the presence of the substrate. A is given by
(§4) where k+0 is the rate constant for association of the inhibitor with the enzyme, K^−1 is the inverted Michaelis constant, and [S] the substrate concentration. The apparent inhibition rate constant A is the slope of a plot of log([P∞]−[P]) against t, to give the second-order rate constant of inhibition k+0

The next data set has as its target T2, Elastase (Homo sapiens, UniProt P08246).
T2 sequence (P08246 30-267): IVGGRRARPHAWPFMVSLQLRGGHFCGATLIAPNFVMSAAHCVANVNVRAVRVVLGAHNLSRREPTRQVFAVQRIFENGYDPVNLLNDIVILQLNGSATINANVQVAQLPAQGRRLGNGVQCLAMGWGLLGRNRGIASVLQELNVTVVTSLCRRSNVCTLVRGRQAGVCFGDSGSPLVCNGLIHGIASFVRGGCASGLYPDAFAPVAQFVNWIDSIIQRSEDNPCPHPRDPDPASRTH
Described as above. As to conditions: n.s where no significant inhibition. Here is the method: as §1, §2, §3, §4

The next data set concerns the target T3, HNE (Homo sapiens, UniProt P08246).
T3 sequence (P08246 30-267): T2 sequence (P08246 30-267)
The experiment in a line: Hydrolysis of paranitroanilide substrates, kcat/KM. As to the method:
(§5) Then we used the peptidyl sequences DYDA- and PYDA- to construct two paranitroanlide substrates bearing this sequence from P4 to P1. Ac-DYDA-pNA and Ac-PYDA-pNA were assayed with purified PR3 and HNE and the specificity constants kcat/Km were determined. […] We then constructed phosphonate inhibitors with the same peptidyl sequence i.e. Ac-DYDA^P(Oph-p-Cl)2 and Ac-PYDA^P(Oph-p-Cl)2.

Another data set deals with T4, wtPR3 (Homo sapiens, UniProt P24158).
T4 sequence (P24158 28-248): T1 sequence (P24158 28-248)
The experiment in a line: Hydrolysis of paranitroanilide substrates, kcat/KM. As to the method: as §5

Where no end group is shown, it is not given here. [ ]: non-standard residue; d: D form. The star is where a group is joined. pNA = O=[N+]([O-])c1ccc(N*)cc1; AlaP = not defined here; Ahx = NCCCCCC(=O)O; pentyl = CCCCC*

In the case of “Ac-Ahx-Pro-Tyr-Asp-Ala^P(O—C6H4-4-Cl)2 ({Ac-Ahx}-PYD[AlaP]; not fully specified (C-terminus); printed as Ac-Ahx-Pro-Tyr-Asp-Ala^P(O—C6H4-4-Cl)2; reading uncertain; also: C-terminal Ala as phosphonate analogue (Ala^P)) [Compound 9]”, in the data set with Proteinase 3, the “Proteinase 3 kobs/[I]” value is 2159 ± 235 M⁻¹ s⁻¹ and the “kobs/I range” value is ~10^3 M^−1s^−1. Moreover, the “Elastase kobs/[I]” value in the data set with Elastase was “n.s”.

For the substance Ac-DYDA-pNA, the “cleavage by purified HNE” value at HNE is listed as “did not cleave”. Also, on wtPR3, the “cleavage by purified PR3” value is reported as “rapidly cleaved”.

For the substance “Ac-Ile-Pro-Tyr-Asp-Ala^P(O—C6H4-4-Cl)2 (Ac-IPYD[AlaP]; not fully specified (C-terminus); printed as Ac-Ile-Pro-Tyr-Asp-Ala^{P}(O—C₆H₄-4-Cl)₂; reading uncertain; also: C-terminal Ala as phosphonate analogue (Ala^P)) [Compound 12]”, in the data set with Proteinase 3, the “Proteinase 3 kobs/[I]” value was 46 ± 0.1 M⁻¹ s⁻¹ and the “effect of P5 group on kobs/I” value is reported as “did not significantly increase”. Further, the “Elastase kobs/[I]” value with Elastase turned out to be 15.1 ± 1.6 M⁻¹ s⁻¹.

For the substance Ac-PYDA-pNA, the “cleavage by purified HNE” value on HNE was “did not cleave”. In addition, the “cleavage by purified PR3” value at wtPR3 is on record as “rapidly cleaved”.

As for “Ac-Pro-Tyr-Phe-Ala^P(O—C6H4-4-Cl)2 (Ac-PYF[AlaP]; not fully specified (C-terminus); printed as Ac-Pro-Tyr-Phe-Ala^{P}(O—C₆H₄-4-Cl)₂; reading uncertain; also: C-terminal Ala as phosphonate analogue (Ala^P)) [Compound 7]”, the “Proteinase 3 kobs/[I]” value in the data set with Proteinase 3 turned out to be 2.1 ± 0.2 M⁻¹ s⁻¹. Moreover, the “Elastase kobs/[I]” value in the data set with Elastase is recorded as “n.s”.

On to “Ac-Trp-Pro-Tyr-Asp-Ala^P(O—C6H4-4-Cl)2 (Ac-WPYD[AlaP]; not fully specified (C-terminus); printed as Ac-Trp-Pro-Tyr-Asp-Ala^{P}(O—C₆H₄-4-Cl)₂; reading uncertain; also: C-terminal Ala as phosphonate analogue (Ala^P)) [Compound 11]”, for which, in the data set with Proteinase 3, the “Proteinase 3 kobs/[I]” value is 15 ± 0.1 M⁻¹ s⁻¹ and the “effect of P5 group on kobs/I” value is “did not significantly increase”. In addition, the “Elastase kobs/[I]” value with Elastase is given as “n.s”.

On to “Biotin-Asp-Tyr-Asp-Ala^P(O—C6H4-4-Cl)2 [Compound 3]”, for which the “Proteinase 3 kobs/[I]” value at Proteinase 3 turned out to be 18 ± 2.8 M⁻¹ s⁻¹. Besides, the “Elastase kobs/[I]” value on Elastase is “n.s”.

“Biotin-PEG3000-Pro-Tyr-Asp-Ala^P(O—C6H4-4-Cl)2 [Compound 13]”: in the data set with Proteinase 3, the “Proteinase 3 kobs/[I]” value worked out at 1163 ± 0.1 M⁻¹ s⁻¹. Moreover, the “Elastase kobs/[I]” value with Elastase is 46.5 M⁻¹ s⁻¹.

Regarding “Biotin-Pro-Tyr-Asp-Avl^P(O—C6H4-4-Cl)2 [Compound 5]”, the “Proteinase 3 kobs/[I]” value at Proteinase 3 was 33360 ± 4150 M⁻¹ s⁻¹. Further, the “Elastase kobs/[I]” value at Elastase is listed as “n.s”.

As to “Biotin-Val-Tyr-Asp-Ala^P(O—C6H4-4-Cl)2 [Compound 6]”, on Proteinase 3, the “Proteinase 3 kobs/[I]” value worked out at 17396 ± 835 M⁻¹ s⁻¹. Also, the “Elastase kobs/[I]” value on Elastase is on record as “n.s”.

Turning to “CH3(CH2)4-Pro-Tyr-Asp-Ala^P(O—C6H4-4-Cl)2 (pentyl-PYD[AlaP]; not fully specified (C-terminus); printed as CH3(CH2)4-Pro-Tyr-Asp-Ala^P(O—C6H4-4-Cl)2; reading uncertain; also: C-terminal Ala as phosphonate analogue (Ala^P)) [Compound 8]”, in the data set with Proteinase 3, the “Proteinase 3 kobs/[I]” value was found to be 4418 ± 329 M⁻¹ s⁻¹ and the “kobs/I range” value is given as ~10^3 M^−1s^−1. In the data set with Elastase, the “Elastase kobs/[I]” value is “n.s”.

As to “^+H2N-Pro-Tyr-Asp-Ala^P(O—C6H4-4-Cl)2 (H-PYD[AlaP]; not fully specified (C-terminus); printed as ^+H2N-Pro-Tyr-Asp-Ala^P(O—C6H4-4-Cl)2; reading uncertain; also: C-terminal Ala as phosphonate analogue (Ala^P)) [Compound 10]”, in the data set with Proteinase 3, the “Proteinase 3 kobs/[I]” value is 4.7 ± 0.5 M⁻¹ s⁻¹ and the “effect of P5 group on kobs/I” value is “did not significantly increase”. The “Elastase kobs/[I]” value with Elastase is reported as “n.s”.
